Measured values taken from patent US20100310640A1.
Each block holds one binder with its values, some of them ahead of it.

What was measured:
Settings in all cases: remark: other sources report otherwise
HLA-DR DRB1*0404 (human) [1] = target: T1, HLA-DR DRB1*0404 (human); experiment: radioligand inhibition, purified HLA-DR
T1 chain 1: not shown
T1 chain 2: not shown

HLA-DR DRB1*1201 (human) [2] = target: T2, HLA-DR DRB1*1201 (human); experiment: radioligand inhibition, purified HLA-DR
T2 chain 1: not shown
T2 chain 2: not shown

HLA-DR DRB1*1302 (human) [3] = target: T3, HLA-DR DRB1*1302 (human); experiment: radioligand inhibition, purified HLA-DR
T3 chain 1: not shown
T3 chain 2: not shown

HLA-DR DRB4*0101 (human) [4] = target: T4, HLA-DR DRB4*0101 (human); experiment: radioligand inhibition, purified HLA-DR
T4 chain 1: not shown
T4 chain 2: not shown

HLA-DR DRB1*0101 (human) [5] = target: T5, HLA-DR DRB1*0101 (human); experiment: radioligand inhibition, purified HLA-DR
T5 chain 1: not shown
T5 chain 2: not shown

HLA-DR DRB1*0301 (human) [6] = target: T6, HLA-DR DRB1*0301 (human); experiment: radioligand inhibition, purified HLA-DR
T6 chain 1: not shown
T6 chain 2: not shown

HLA-DR DRB1*0401 (human) [7] = target: T7, HLA-DR DRB1*0401 (human); experiment: radioligand inhibition, purified HLA-DR
T7 chain 1: not shown
T7 chain 2: not shown

HLA-DR DRB1*1101 (human) [8] = target: T8, HLA-DR DRB1*1101 (human); experiment: radioligand inhibition, purified HLA-DR
T8 chain 1: not shown
T8 chain 2: not shown

HLA-DR DRB1*0401 (human) [9] = target: T7, HLA-DR DRB1*0401 (human); experiment: radiolabeled-peptide inhibition, purified HLA-DR
HLA-DR DRB1*0404 (human) [10] = target: T1, HLA-DR DRB1*0404 (human); experiment: radiolabeled-peptide inhibition, purified HLA-DR
HLA-DR DRB1*0701 (human) [11] = target: T9, HLA-DR DRB1*0701 (human); experiment: radiolabeled-peptide inhibition, purified HLA-DR
T9 chain 1: not shown
T9 chain 2: not shown

HLA-DR DRB1*1302 (human) [12] = target: T3, HLA-DR DRB1*1302 (human); experiment: radiolabeled-peptide inhibition, purified HLA-DR
HLA-DR DRB4*0101 (human) [13] = target: T4, HLA-DR DRB4*0101 (human); experiment: radiolabeled-peptide inhibition, purified HLA-DR
HLA-DR DRB5*0101 (human) [14] = target: T10, HLA-DR DRB5*0101 (human); experiment: radiolabeled-peptide inhibition, purified HLA-DR
T10 chain 1: not shown
T10 chain 2: not shown

[15] = target: T11, HLA-DR molecule DRB1*0405 (human); experiment: radioligand inhibition, purified HLA-DR
T11 chain 1: not shown
T11 chain 2: not shown

[16] = target: T12, HLA-DR molecule DRB1*0802 (human); experiment: radioligand inhibition, purified HLA-DR
T12 chain 1: not shown
T12 chain 2: not shown

HLA-DR DRB1*0101 (human) [17] = target: T5, HLA-DR DRB1*0101 (human); experiment: radioligand competition, purified HLA-DR
HLA-DR DRB1*0101 (human) [18] = target: T5, HLA-DR DRB1*0101 (human); experiment: radiolabeled-peptide inhibition, purified HLA-DR
HLA-DR DRB1*0405 (human) = target: T13, HLA-DR DRB1*0405 (human); experiment: radiolabeled-peptide inhibition, purified HLA-DR
T13 chain 1: not shown
T13 chain 2: not shown

HLA-DR DRB1*1101 (human) [19] = target: T8, HLA-DR DRB1*1101 (human); experiment: radiolabeled-peptide inhibition, purified HLA-DR
HLA-DR DRB1*0301 (human) [20] = target: T6, HLA-DR DRB1*0301 (human); experiment: radiolabeled-peptide inhibition, purified HLA-DR
HLA-DR DRB1*1201 (human) [21] = target: T2, HLA-DR DRB1*1201 (human); experiment: radiolabeled-peptide inhibition, purified HLA-DR
[22] = target: T14, HLA-DR molecule DRB1*0101 (human); experiment: radioligand inhibition, purified HLA-DR
T14 chain 1: not shown
T14 chain 2: not shown

[23] = target: T15, HLA-DR molecule DRB1*0404 (human); experiment: radioligand inhibition, purified HLA-DR
T15 chain 1: not shown
T15 chain 2: not shown

[24] = target: T16, HLA-DR molecule DRB5*0101 (human); experiment: radioligand inhibition, purified HLA-DR
T16 chain 1: not shown
T16 chain 2: not shown

[25] = target: T17, HLA-DR molecule DRB1*0701 (human); experiment: radioligand inhibition, purified HLA-DR
T17 chain 1: not shown
T17 chain 2: not shown

HLA-DR DRB1*0701 (human) [26] = target: T9, HLA-DR DRB1*0701 (human); experiment: radioligand inhibition, purified HLA-DR
HLA-DR DRB5*0101 (human) [27] = target: T10, HLA-DR DRB5*0101 (human); experiment: radioligand inhibition, purified HLA-DR

B1: CEA.33 peptide 9019.0106 (peptide)
peptide: TAKLTIESTPFNVAE
IC50 (HLA-DR DRB1*0404 (human) [1]): 41 nM | IC50 (HLA-DR DRB1*1201 (human) [2]): 2310 nM | IC50 (HLA-DR DRB1*1302 (human) [3]): 35 nM | IC50 (HLA-DR DRB4*0101 (human) [4]): 53 nM

B3: 9019.0083 (peptide)
peptide: CMQIAKGMSYLEDVR
IC50 (HLA-DR DRB1*0401 (human) [9]): 2650 nM | IC50 (HLA-DR DRB1*0404 (human) [10]): 867 nM | IC50 (HLA-DR DRB1*0701 (human) [11]): 116 nM | IC50 (HLA-DR DRB1*1302 (human) [12]): 2230 nM | IC50 (HLA-DR DRB4*0101 (human) [13]): 3000 nM | IC50 (HLA-DR DRB5*0101 (human) [14]): 130 nM

B6: Cyclin D1.209 (peptide 9019.0171) (peptide)
peptide: VAAVQGLNLRSPNNF
IC50 (HLA-DR DRB1*0101 (human) [17]): 44 nM

B7: 9019.0050 (peptide)
peptide: ITGYLYISAWPDSLP
IC50 (HLA-DR DRB1*0101 (human) [18]): 96 nM | IC50 (HLA-DR DRB1*0401 (human) [9]): 243 nM | IC50 (HLA-DR DRB1*0405 (human)): 8.5 nM | IC50 (HLA-DR DRB1*1101 (human) [19]): 2570 nM | IC50 (HLA-DR DRB1*1302 (human) [12]): 751 nM | IC50 (HLA-DR DRB4*0101 (human) [13]): 270 nM | IC50 (HLA-DR DRB5*0101 (human) [14]): 67 nM

B8: 9019.0044 (peptide)
peptide: CYGLGMEHLREVRAV
IC50 (HLA-DR DRB1*0101 (human) [18]): 130 nM | IC50 (HLA-DR DRB1*0301 (human) [20]): 265 nM | IC50 (HLA-DR DRB1*0401 (human) [9]): 1030 nM | IC50 (HLA-DR DRB1*0404 (human) [10]): 493 nM | IC50 (HLA-DR DRB1*0405 (human)): 5120 nM | IC50 (HLA-DR DRB1*0701 (human) [11]): 271 nM | IC50 (HLA-DR DRB1*1201 (human) [21]): 19000 nM | IC50 (HLA-DR DRB4*0101 (human) [13]): 444 nM | IC50 (HLA-DR DRB5*0101 (human) [14]): 3780 nM

B9: 1622.03 (peptide)
peptide: KIPVAIKVLRENTSP
IC50 (HLA-DR DRB1*0101 (human) [18]): 1500 nM | IC50 (HLA-DR DRB1*0401 (human) [9]): 3860 nM | IC50 (HLA-DR DRB1*0404 (human) [10]): 125 nM | IC50 (HLA-DR DRB1*1101 (human) [19]): 4110 nM | IC50 (HLA-DR DRB4*0101 (human) [13]): 7800 nM | IC50 (HLA-DR DRB5*0101 (human) [14]): 1500 nM

B13: CEA.24 peptide 9019.0105 (peptide)
peptide: LLTFWNPPTTAKLTI
IC50 (HLA-DR DRB1*0101 (human) [5]): 69 nM | IC50 (HLA-DR DRB1*0404 (human) [1]): 52 nM | IC50 (HLA-DR DRB1*0701 (human) [26]): 3.7 nM | IC50 (HLA-DR DRB1*1101 (human) [8]): 52 nM | IC50 (HLA-DR DRB1*1201 (human) [2]): 3000 nM | IC50 (HLA-DR DRB5*0101 (human) [27]): 31 nM

B14: Cyclin D1.123 (peptide)
peptide: KLCIYTDNSIRPEEL
IC50 (HLA-DR DRB1*0101 (human) [5]): 1920 nM | IC50 (HLA-DR DRB1*0301 (human) [6]): 64 nM | IC50 (HLA-DR DRB1*0401 (human) [7]): 90 nM | IC50 (HLA-DR DRB1*0701 (human) [26]): 1100 nM | IC50 (HLA-DR DRB1*1302 (human) [3]): 879 nM | IC50 (HLA-DR DRB4*0101 (human) [4]): 33 nM | IC50 (HLA-DR DRB5*0101 (human) [27]): 4620 nM

The remaining lines, values ahead:

IC50 (HLA-DR DRB1*0101 (human) [5]): 8210 nM | IC50 (HLA-DR DRB1*0301 (human) [6]): 151 nM | IC50 (HLA-DR DRB1*0401 (human) [7]): 605 nM | IC50 (HLA-DR DRB1*0404 (human) [1]): 1020 nM | IC50 (HLA-DR DRB1*1101 (human) [8]): 756 nM | IC50 (HLA-DR DRB1*1302 (human) [3]): 4760 nM | IC50 (HLA-DR DRB4*0101 (human) [4]): 4030 nM
B2: Cyclin D1.252 (peptide)
peptide: EALLESSLRQAQQNM

IC50 (HLA-DR DRB1*0301 (human) [6]): 8620 nM
B4: Peptide 9019.0018 (peptide)
peptide: ELAVFREKVTEQHRQ

IC50 [15]: 34 nM | IC50 [16]: 260 nM
B5: Peptide 9019.0185 (IGFBP2.184) (peptide)
peptide: LKSGMKELAVFREKV

IC50 [22]: 17 nM | IC50 [23]: 8.2 nM | IC50 [24]: 94 nM
B10: Peptide 9019.0046 (Her2/neu.350) (peptide)
peptide: LREVRAVTSANIQEF

IC50 [22]: 7.7 nM | IC50 [23]: 29 nM | IC50 [15]: 110 nM | IC50 [25]: 18 nM | IC50 [24]: 4000 nM
B11: Peptide 9019.0190 (IGFBP2.249) (peptide)
peptide: ERGPLEHLYSLHIPN

IC50 (HLA-DR DRB1*0301 (human) [6]): 18 nM | IC50 (HLA-DR DRB1*0404 (human) [1]): 13100 nM | IC50 (HLA-DR DRB1*1101 (human) [8]): 94 nM | IC50 (HLA-DR DRB1*1302 (human) [3]): 280 nM
B12: Peptide 9019.0099 (peptide)
peptide: LQRYSEDPTVPLPSE
